Where two headings read alike, the source gives them in different places.
How the values were obtained:
Assay in all cases: SPR
FcgRIa = target: T1, FcgRIa (human, UniProt P12314)
T1 chain: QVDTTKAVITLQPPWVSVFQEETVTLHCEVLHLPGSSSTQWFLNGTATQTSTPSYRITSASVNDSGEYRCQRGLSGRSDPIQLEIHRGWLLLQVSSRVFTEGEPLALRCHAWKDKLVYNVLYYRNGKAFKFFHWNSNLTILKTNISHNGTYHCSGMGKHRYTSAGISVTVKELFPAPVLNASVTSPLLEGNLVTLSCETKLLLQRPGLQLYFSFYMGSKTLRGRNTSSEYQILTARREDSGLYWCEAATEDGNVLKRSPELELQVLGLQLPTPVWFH

FcgRIIa R = target: T2, FcgRIIa R (human, UniProt P12318)
T2 chain: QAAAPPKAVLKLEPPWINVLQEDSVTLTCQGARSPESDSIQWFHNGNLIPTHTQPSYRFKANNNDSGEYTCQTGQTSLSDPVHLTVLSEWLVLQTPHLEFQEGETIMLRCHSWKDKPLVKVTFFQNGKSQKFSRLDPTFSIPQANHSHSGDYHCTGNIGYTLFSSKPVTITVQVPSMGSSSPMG

FcgRIIIa V [1] = target: T3, FcgRIIIa V (human, UniProt P08637)
FcgRIIb = target: T4, FcgRIIb (human, UniProt P31994)
T4 chain: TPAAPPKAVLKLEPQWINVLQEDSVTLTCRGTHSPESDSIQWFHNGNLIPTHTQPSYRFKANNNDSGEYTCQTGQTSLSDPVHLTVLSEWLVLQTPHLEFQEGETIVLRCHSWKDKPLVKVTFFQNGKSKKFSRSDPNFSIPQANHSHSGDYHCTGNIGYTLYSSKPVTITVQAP

FcgRIIIa V [2] = target: T3, FcgRIIIa V; remark: listed apart in the source
FcgRIIa H = target: T5, FcgRIIa H (human, UniProt P12318)
T5 chain: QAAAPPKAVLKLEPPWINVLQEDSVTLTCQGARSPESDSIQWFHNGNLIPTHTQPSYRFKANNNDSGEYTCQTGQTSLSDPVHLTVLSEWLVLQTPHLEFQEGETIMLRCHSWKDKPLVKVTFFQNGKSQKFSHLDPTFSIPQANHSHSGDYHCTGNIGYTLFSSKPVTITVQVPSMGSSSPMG

T3 sequence (P08637 17-208 F176V): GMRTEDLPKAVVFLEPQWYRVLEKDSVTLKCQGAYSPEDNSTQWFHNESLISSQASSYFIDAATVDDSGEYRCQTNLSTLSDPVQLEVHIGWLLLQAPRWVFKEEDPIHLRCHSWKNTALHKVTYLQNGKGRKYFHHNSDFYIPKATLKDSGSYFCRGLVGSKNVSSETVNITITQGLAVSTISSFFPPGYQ

B1: IL6R-BP253/IL6R-L (antibody)
chain 1: QVQLQESGPGLVKPSETLSLTCAVSGHSISHDHAWSWVRQPPGEGLEWIGFISYSGITNYNPSLQGRVTISRDNSKNTLYLQMNSLRAEDTAVYYCARSLARTTAMDYWGEGTLVTVSSASTKGPSVFPLAPSSKSTSGGTAALGCLVKDYFPEPVTVSWNSGALTSGVHTFPAVLQSSGLYSLSSVVTVPSSSLGTQTYICNVNHKPSNTKVDKKVEPKSCDKTHTCPPCPAPELLGGPSVFLFPPKPKDTLMISRTPEVTCVVVDVEHEDPEVKFNWYVDGVEVHNAKTKPREEQYNSTYRVVSVLTVLHQDWLNGKEYKCKVSNKAFPAPIEKTISKAKGQPREPQVYTLPPSRDELTKNQVSLTCLVKGFYPSDIAVEWESNGQPENNYKTTPPVLDSDGSFFLYSKLTVDKSRWQQGNVFSCSVMHEALHNHYTQESLSLSP
chain 2: not shown
Kd (FcgRIa): 0.05 nM | Kd (FcgRIIa R): 2.3 nM | Kd (FcgRIIIa V [1]): 400 nM | Kd (FcgRIIb): 8.9 nM | Kd (FcgRIIIa V [2]): 7100 nM | Kd (FcgRIIa H): 860 nM
